Molecular target: Bac S-2P (S-2P from the baculovirus-insect cell expression system, TN-5B1-4 cells) (SARS-CoV-2)
Experiment: negative-stain EM

For “Bac S-2P (S-2P from the baculovirus-insect cell expression system, TN-5B1-4 cells) (domain or fragment)”, which stoichiometry N is on record?
The stoichiometry N was 3.

From paper PMC9510068
